Data as given in patent publication US6280955.

Molecular target: IL-1RI (cell surface IL-1 receptor) (Homo sapiens (Human)) (UniProt P14778)

Substance: epitope-tagged IL-1RAcP (amino-terminal FLAG fusion, full length, transiently expressed from pFlag-CMV-1) (receptor)
- NF-κB-dependent luciferase reporter gene in 293 cells, ligand-independent: 20 fold
